Test [1] has as its target T1, human FcRH3 (BIACORE analyte) (human, UniProt Q96P31 18-573, limits assumed).
T1 construct: also called huFcRH3
T1 sequence (looked up): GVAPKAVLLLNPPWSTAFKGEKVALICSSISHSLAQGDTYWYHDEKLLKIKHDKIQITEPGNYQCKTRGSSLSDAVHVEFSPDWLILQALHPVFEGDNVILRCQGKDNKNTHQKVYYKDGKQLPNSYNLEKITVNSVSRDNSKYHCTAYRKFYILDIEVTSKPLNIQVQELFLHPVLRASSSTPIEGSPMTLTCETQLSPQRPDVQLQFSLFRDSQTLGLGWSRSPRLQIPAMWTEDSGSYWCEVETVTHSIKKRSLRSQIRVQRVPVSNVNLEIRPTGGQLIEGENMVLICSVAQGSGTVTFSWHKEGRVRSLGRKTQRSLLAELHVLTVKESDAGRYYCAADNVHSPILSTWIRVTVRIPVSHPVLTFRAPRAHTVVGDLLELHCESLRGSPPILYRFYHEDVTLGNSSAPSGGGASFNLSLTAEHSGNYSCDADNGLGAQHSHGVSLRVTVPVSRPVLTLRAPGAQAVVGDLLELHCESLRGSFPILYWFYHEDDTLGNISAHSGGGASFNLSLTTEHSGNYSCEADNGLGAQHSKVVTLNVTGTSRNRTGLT
As to the kind of experiment: SPR (BIACORE), TDB captured as ligand, FcRH3 as analyte, 25 °C, 1:1 binding model. A general note: Surface plasmon resonance follows binding to a sensor surface in real time, without labels.

Test [2] concerns the target T2, human FcRH5 protein fragment (soluble) (human, UniProt Q96RD9 16-851).
T2 construct: whole entry named; also called soluble human FcRH5; Human FcRH5 (BIACORE analyte)
T2 sequence: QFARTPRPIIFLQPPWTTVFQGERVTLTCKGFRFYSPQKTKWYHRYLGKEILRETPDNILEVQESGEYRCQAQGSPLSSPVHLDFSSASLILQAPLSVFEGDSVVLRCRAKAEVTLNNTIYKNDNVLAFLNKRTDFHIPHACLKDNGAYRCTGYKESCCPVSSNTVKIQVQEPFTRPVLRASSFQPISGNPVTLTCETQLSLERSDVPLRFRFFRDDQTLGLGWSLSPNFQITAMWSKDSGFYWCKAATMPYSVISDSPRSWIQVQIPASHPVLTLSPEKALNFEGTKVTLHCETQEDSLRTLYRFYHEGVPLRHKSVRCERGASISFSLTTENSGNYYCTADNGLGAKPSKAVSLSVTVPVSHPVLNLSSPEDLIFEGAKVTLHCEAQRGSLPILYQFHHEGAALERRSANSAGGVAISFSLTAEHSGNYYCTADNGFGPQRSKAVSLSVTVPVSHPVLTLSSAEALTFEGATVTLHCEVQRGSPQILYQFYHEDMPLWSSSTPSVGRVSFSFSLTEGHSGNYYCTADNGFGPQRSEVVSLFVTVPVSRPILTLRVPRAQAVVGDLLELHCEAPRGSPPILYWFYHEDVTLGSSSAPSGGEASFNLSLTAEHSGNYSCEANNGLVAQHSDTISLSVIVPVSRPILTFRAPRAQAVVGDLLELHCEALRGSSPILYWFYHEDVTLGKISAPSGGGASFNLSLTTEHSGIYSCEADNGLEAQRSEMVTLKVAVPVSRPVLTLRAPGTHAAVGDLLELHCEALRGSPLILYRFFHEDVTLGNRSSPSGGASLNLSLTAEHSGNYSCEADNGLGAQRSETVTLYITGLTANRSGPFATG
As to the kind of experiment: SPR (BIACORE), hIgG capture format, 1:1 binding model, monovalent affinity; same numbers as FIG. 10B, Hu FcRH5 panel. The protocol: Kinetic characterization experiments were carried out (see Table 8). In these experiments, binding of soluble FcRH5 protein fragment to purified antibodies in human TDB antibody format was analyzed at six different non-zero concentrations (a 1:3 dilution series, one concentration injected twice as a replicate). Flow rate was set at 40 μl/min and association and dissociation monitored for 600 s.

Test [3] has as its target T3, human FcRH1 (full-length, on SVT2 cells) (human, UniProt Q96LA6 17-429).
T3 construct: whole, on cells; also called SVT2-FcRH1
T3 sequence (looked up): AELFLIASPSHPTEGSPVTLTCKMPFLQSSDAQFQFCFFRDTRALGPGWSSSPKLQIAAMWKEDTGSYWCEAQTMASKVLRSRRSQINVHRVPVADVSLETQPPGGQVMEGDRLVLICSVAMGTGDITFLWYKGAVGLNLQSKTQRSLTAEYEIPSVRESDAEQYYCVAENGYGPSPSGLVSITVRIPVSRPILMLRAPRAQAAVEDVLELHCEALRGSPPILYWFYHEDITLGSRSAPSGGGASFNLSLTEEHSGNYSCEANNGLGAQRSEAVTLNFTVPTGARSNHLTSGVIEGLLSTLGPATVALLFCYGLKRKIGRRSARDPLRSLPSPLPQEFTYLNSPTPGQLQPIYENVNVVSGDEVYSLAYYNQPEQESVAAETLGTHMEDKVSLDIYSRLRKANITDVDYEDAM
Description: flow cytometry on SVT2-FcRH1 cells, PE-labelled secondary. On the procedure:
Human FcRH5, cyno FcRH5, human FcRH1, FcRH2, FcRH3, and FcRH4 transfected mouse SVT2 cells were used to test binding and cross-reactivity of FcRH5 TDBs. The method was carried out as follows. Cultured SVT2 cells were lifted using non-enzyme cell dissociation buffer (Sigma, #C5914). 1×10⁵ cells were suspended in 100 μL and incubated with FcRH5 TDBs at 3 μg/ml. […] Cells were washed twice with FACS buffer before flow cytometry analysis was carried out on a FACSCalibur.
(In general: A flow cytometer gives signals particle by particle.)

In test [4] the target is T2, human FcRH5 protein fragment (soluble). Description: SPR (BIACORE), Human FcRH5, 1:1 binding model.
Test [5] shares this target. Description: BIACORE.

This note sets out measurements from patent US20240383984A1 (Genentech, published 2024).

Numbering of substitutions follows the chain as printed.

For orientation: koff means a measure of how fast the partners let go of each other. Read a low koff as slow dissociation. By kon is commonly meant the second-order rate constant of association. Higher therefore signals faster complex formation. One may read the Kd as a measure of binding affinity in units of concentration. Higher therefore signals lower affinity.

B1: hu1G7.v1.4/38E4.v1 TDB (bispecific antibody, V domains shown)
VH 1: EVQLVESGPGLVKPSETLSLTCTVSGFSLTRFGVHWVRQPPGKGLEWLGVIWRGGSTDYNAAFMSRLTISKDNSKNQVSLKLSSVTAADTAVYYCSNHYYGSSDYALDNWGQGTLVTVSS
VL 1: DIQMTQSPSSLSASVGDRVTITCKASQDVRNLVVWFQQKPGKAPKLLIYSGSYRYSGVPSRFSGSGSGTDFTLTISSLQPEDFATYYCQQHYSPPYTFGQGTKVEIK
VH 2: EVQLVQSGAEVKKPGASVKVSCKASGFTFTSYYIHWVRQAPGQGLEWIGWIYPENDNTKYNEKFKDRVTITADTSTSTAYLELSSLRSEDTAVYYCARDGYSRYYFDYWGQGTLVTVSS
VL 2: DIVMTQSPDSLAVSLGERATINCKSSQSLLNSRTRKNYLAWYQQKPGQSPKLLIYWTSTRKSGVPDRFSGSGSGTDFTLTISSLQAEDVAVYYCKQSFILRTFGQGTKVEIK
notes: knob-into-hole TDB; also called 1G7.v1.4 TDB; 1G7.v1.4 (TDB format)
In test [1], B1 came in with a koff of 0.00833 s⁻¹ and a kon of 109000 M⁻¹ s⁻¹.

B2: 1G7.v85/38E4.v1 TDB (bispecific antibody, V domains shown)
VH 1: B1 VH 1 with M64V
VL 1: B1 VL 1
VH 2: B1 VH 2
VL 2: B1 VL 2
notes: knob-into-hole TDB; also called 1G7.v85 TDB; 1G7.v85 (TDB format)
In the case of B2, the Kd in test [2] came out at 2.35 nM; in test [4] it was 2.08 nM; in test [5] it was 2.1 nM. Besides, the koff in test [2] came to 0.00104 s⁻¹; in test [4], 0.000746 s⁻¹. Also, the kon in test [2] worked out at 441000 M⁻¹ s⁻¹; in test [4], 359000 M⁻¹ s⁻¹. For the same molecule, the binding result in test [3] is “no binding”.
